Experimental data: US20060068386A1, “Complete genome and protein sequence of the hyperthermophile methanopyrus kandleri av19 and monophyly of archael methanogens and methods of use thereof” (priority 2002, published 2006)

Legend:
[1] = biological target: T1, M. kandleri AV19 PCNA (MK1030), DNA polymerase sliding clamp
T1 chain: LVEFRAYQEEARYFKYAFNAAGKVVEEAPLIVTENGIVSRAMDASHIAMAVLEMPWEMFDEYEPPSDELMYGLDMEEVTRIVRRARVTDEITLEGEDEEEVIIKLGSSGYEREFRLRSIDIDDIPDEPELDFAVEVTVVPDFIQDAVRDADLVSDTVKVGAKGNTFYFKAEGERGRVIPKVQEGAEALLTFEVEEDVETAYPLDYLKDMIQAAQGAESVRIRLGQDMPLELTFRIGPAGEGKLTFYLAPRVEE

[2] = system: fluorescent duplex substrate containing a primer-template junction (PTJ); assay: Primer extension assay of PolB DNA polymerase activity; assay type: biochemical
Method: A primer extension assay was applied with a fluorescent duplex substrate containing a primer-template junction (PTJ). The duplex shown in FIG. 18 was prepared by annealing a 5′-end labeled with fluorescein 20-nt long primer with a 40-nt long template:
(§1) DNA polymerase reaction mixtures (15-20 μl) contained dATP, dTTP, dCTP, and dGTP (1 mM each), 4.5 mM MgCl2, detergents Tween 20 and Nonidet P-40 (0.2% each), fixed concentrations of PTJ—duplex, other additions, as indicated, and appropriate amounts of polB in 30 mM Tris-HCl buffer pH 8.0 (25° C.). The background reaction mixtures contained all components except DNA polymerases. Primer extensions were carried out for a preset time at 75° C. in PTC-150 Minicycler (MJ Research, Inc.; Waltham, Mass.). 5 μl samples were removed and chilled to 4° C. followed by immediate addition of 20 μl of 20 mM EDTA. The samples were desalted by centrifugation through Sephadex G-50 spun columns, diluted, and analyzed on a ABI Prism 377 DNA sequencer (Applied BioSystems; Foster City, Calif.). For each sample, raw data were extracted from the sequencer trace files with the program Chromas 1.5 (Technelysium Pty Ltd., Australia), and the fluorescent signals were analyzed by our nonlinear regression data analysis programs written in Fortran. The programs applied Powell algorithms to approximate the signals by a number of Gaussian peaks and calculate integral fluorescent intensities for each product peak. The total amount of fluorescent products for each time of incubation was determined, and the initial rates of extension were calculated.
(§2) The next two tables (Table 4 and 5) display effects of various media components on M.K. polB DNA polymerase activity. Initial rates of primer extension reaction were measured as described by Pavlov et al., 2002.
Table 6 illustrates the dependency of initial rates of primer extension for Duplex 2 shown in FIG. 17 on temperature of the reaction. Initial rates of primer extension reaction were measured as described by Pavlov et al., 2002.

[3] = system: fluorescent duplex substrate containing a primer-template junction (PTJ); assay: as above; assay type: biochemical; remark: listed apart in the source
[4] = system: fluorescent primer *FL-GTAATACGACTCACTATAGGG; assay: 3'→5' exonuclease activity of polB; assay type: biochemical
Method: A 3′→5′ exonuclease activity of polB polymerase was measured at the same conditions as in the primer extension assay, except omitting dideoxynucleotides. A fluorescent primer:
was incubated with the enzyme at defined times. Then, the amounts of formed products were calculated, and the initial rates of hydrolysis were found, as in case of primer extension. It is interesting that polB was able to cleave off only 9 nucleotides of the primer, that is, the […] primer was the shortest substrate that polB could process.

[5] = biological target: M.K. polB DNA polymerase (Methanopyrus kandleri, UniProt Q8TWJ5); assay: Effects of media components on M.K. polB DNA polymerase activity (primer extension); assay type: biochemical
Method: as §1, §2

[6] = biological target: T2, M. kandleri AV19 DNA polymerase family B (Mka PolB) (MK1039) (Methanopyrus kandleri AV19); assay: cell-based or functional assay
T2 chain: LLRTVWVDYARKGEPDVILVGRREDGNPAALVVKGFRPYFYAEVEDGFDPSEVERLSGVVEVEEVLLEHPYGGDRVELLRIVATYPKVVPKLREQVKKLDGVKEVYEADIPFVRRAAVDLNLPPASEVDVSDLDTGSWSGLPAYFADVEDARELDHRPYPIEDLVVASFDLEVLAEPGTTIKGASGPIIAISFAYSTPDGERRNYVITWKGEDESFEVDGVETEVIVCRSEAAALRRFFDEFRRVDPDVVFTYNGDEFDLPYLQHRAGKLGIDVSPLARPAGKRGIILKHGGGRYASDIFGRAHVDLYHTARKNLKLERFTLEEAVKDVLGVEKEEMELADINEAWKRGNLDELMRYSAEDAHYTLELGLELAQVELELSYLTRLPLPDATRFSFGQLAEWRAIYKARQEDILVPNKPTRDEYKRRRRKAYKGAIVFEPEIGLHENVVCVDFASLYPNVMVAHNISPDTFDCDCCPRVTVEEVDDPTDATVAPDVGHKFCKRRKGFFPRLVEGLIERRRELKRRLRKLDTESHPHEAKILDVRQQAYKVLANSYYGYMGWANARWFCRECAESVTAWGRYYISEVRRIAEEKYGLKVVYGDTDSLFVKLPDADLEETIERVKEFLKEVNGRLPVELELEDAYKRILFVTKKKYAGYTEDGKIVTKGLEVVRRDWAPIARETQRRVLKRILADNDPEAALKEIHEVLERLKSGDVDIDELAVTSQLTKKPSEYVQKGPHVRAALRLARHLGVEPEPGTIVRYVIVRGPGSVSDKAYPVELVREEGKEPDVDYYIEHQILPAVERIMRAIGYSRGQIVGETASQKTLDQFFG

[7] = system: PolB; assay: Interaction of polB with PCNA (primer extension assay); assay type: biochemical, Methanopyrus kandleri; conditions: PCNA 5.6 μM subunits, 100 mM NaCl
Method: PolB was incubated with PCNA (final concentration 5.6 μM subunits) in the presence of 100 mM NaCl. The polymerase activity was measured in the primer extension assay and compared to the activity without PCNA added. Even without clamp loader, the interaction of PCNA with PolB was detected as the initial rate of the primer extension increased 1.75 times. […] This happens, most likely because PCNA anchors polB on the PTJ and/or prevents partial melting of the PTJ duplex.

Sequence of M.K. polB DNA polymerase (Q8TWJ5 entry or part of it): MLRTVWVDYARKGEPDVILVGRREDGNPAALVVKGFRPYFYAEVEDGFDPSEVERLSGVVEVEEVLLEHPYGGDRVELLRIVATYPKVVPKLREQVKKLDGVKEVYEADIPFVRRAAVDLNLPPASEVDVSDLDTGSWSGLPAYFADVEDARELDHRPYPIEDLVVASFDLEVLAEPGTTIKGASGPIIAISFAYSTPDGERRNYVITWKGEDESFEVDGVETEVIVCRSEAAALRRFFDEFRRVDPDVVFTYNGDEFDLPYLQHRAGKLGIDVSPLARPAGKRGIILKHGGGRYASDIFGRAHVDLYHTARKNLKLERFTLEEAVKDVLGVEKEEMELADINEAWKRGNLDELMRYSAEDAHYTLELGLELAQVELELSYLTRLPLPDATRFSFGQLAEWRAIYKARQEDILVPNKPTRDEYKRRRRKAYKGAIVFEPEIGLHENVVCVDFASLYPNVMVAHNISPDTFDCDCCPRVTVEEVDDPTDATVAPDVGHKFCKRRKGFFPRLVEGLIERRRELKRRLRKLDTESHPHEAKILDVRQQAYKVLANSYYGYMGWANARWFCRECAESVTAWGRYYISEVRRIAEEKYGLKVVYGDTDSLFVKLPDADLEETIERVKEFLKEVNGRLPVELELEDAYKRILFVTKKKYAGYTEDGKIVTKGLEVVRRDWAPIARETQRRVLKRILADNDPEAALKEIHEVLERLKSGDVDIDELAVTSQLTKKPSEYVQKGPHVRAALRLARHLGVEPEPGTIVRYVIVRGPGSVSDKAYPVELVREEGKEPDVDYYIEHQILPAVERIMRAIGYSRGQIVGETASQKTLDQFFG

B1: M. kandleri AV19 DNA polymerase family B (Mka PolB) (MK1039) (protein)
chain: LLRTVWVDYARKGEPDVILVGRREDGNPAALVVKGFRPYFYAEVEDGFDPSEVERLSGVVEVEEVLLEHPYGGDRVELLRIVATYPKVVPKLREQVKKLDGVKEVYEADIPFVRRAAVDLNLPPASEVDVSDLDTGSWSGLPAYFADVEDARELDHRPYPIEDLVVASFDLEVLAEPGTTIKGASGPIIAISFAYSTPDGERRNYVITWKGEDESFEVDGVETEVIVCRSEAAALRRFFDEFRRVDPDVVFTYNGDEFDLPYLQHRAGKLGIDVSPLARPAGKRGIILKHGGGRYASDIFGRAHVDLYHTARKNLKLERFTLEEAVKDVLGVEKEEMELADINEAWKRGNLDELMRYSAEDAHYTLELGLELAQVELELSYLTRLPLPDATRFSFGQLAEWRAIYKARQEDILVPNKPTRDEYKRRRRKAYKGAIVFEPEIGLHENVVCVDFASLYPNVMVAHNISPDTFDCDCCPRVTVEEVDDPTDATVAPDVGHKFCKRRKGFFPRLVEGLIERRRELKRRLRKLDTESHPHEAKILDVRQQAYKVLANSYYGYMGWANARWFCRECAESVTAWGRYYISEVRRIAEEKYGLKVVYGDTDSLFVKLPDADLEETIERVKEFLKEVNGRLPVELELEDAYKRILFVTKKKYAGYTEDGKIVTKGLEVVRRDWAPIARETQRRVLKRILADNDPEAALKEIHEVLERLKSGDVDIDELAVTSQLTKKPSEYVQKGPHVRAALRLARHLGVEPEPGTIVRYVIVRGPGSVSDKAYPVELVREEGKEPDVDYYIEHQILPAVERIMRAIGYSRGQIVGETASQKTLDQFFG
In the case of B1, the “hydrolysis of the primer annealed to the duplex (3'-5' exonuclease activity of polB)” value [1] is reported as “suppression of hydrolysis of the primer annealed to the duplex”, the “use of dUTP for primer extensions” value [2] is reported as “can use dUTP for primer extensions” and the “Initial Rate of Primer Extension” value ([2]; 0.5 M NaCl) is reported as 0.123 ± 0.003 µM/min. For the same molecule, the “Initial Rate of Primer Extension” value ([2]; 0.5 M NaCl + PCNA) was 0.214 ± 0.014 µM/min, the “Initial Rate of Primer Extension” value ([2]; 1 M DPG) was 2.17 ± 0.16 µM/min and the “Initial Rate of Primer Extension” value ([2]; 1 M KGlu) was 2.74 ± 0.18 µM/min. For the same molecule, the “Initial Rate of Primer Extension” value ([2]; 1 M KGlu, dUTP) was 1.82 ± 0.09 µM/min, the “temperature up to which primers are extended” value ([2]; Duplex 2 (FIG. 17)) was “up to 105 °C” and the “Initial Rate of Primer Extension” value ([2]; Duplex 2 (FIG. 17), 50 °C) was 1.01 ± 0.06 µM/min. The “Initial Rate of Primer Extension” value ([2]; Duplex 2 (FIG. 17), 55 °C) was 1.08 ± 0.09 µM/min, the “Initial Rate of Primer Extension” value ([2]; Duplex 2 (FIG. 17), 60 °C) was 1.12 ± 0.08 µM/min and the “Initial Rate of Primer Extension” value ([2]; Duplex 2 (FIG. 17), 65 °C) was 1.23 ± 0.05 µM/min. The “Initial Rate of Primer Extension” value ([2]; Duplex 2 (FIG. 17), 70 °C) was 1.01 ± 0.07 µM/min, the “Initial Rate of Primer Extension” value ([2]; Duplex 2 (FIG. 17), 75 °C) was 0.95 ± 0.07 µM/min and the “Initial Rate of Primer Extension” value ([2]; Duplex 2 (FIG. 17), 80 °C) was 0.92 ± 0.07 µM/min. For the same molecule, the “Initial Rate of Primer Extension” value ([2]; Duplex 2 (FIG. 17), 85 °C) was 0.94 ± 0.07 µM/min, the “Initial Rate of Primer Extension” value ([2]; Duplex 2 (FIG. 17), 90 °C) was 0.71 ± 0.05 µM/min and the “Initial Rate of Primer Extension” value ([2]; Duplex 2 (FIG. 17), 95 °C) was 0.62 ± 0.04 µM/min. For the same molecule, the “Initial Rate of Primer Extension” value ([2]; Duplex 2 (FIG. 17), 100 °C) was 0.62 ± 0.06 µM/min, the “Initial Rate of Primer Extension” value ([2]; Duplex 2 (FIG. 17), 105 °C) was 0.55 ± 0.09 µM/min and the “resistance to aggressive chemicals” value [3] was “resistant to aggressive chemicals”. For the same molecule, the “nucleotides of the primer cleaved off” value [4] was 9 nucleotides and the “shortest substrate that polB could process” value [4] was 13 nt.

B2: M. kandleri AV19 PCNA (MK1030), DNA polymerase sliding clamp (other)
chain: LVEFRAYQEEARYFKYAFNAAGKVVEEAPLIVTENGIVSRAMDASHIAMAVLEMPWEMFDEYEPPSDELMYGLDMEEVTRIVRRARVTDEITLEGEDEEEVIIKLGSSGYEREFRLRSIDIDDIPDEPELDFAVEVTVVPDFIQDAVRDADLVSDTVKVGAKGNTFYFKAEGERGRVIPKVQEGAEALLTFEVEEDVETAYPLDYLKDMIQAAQGAESVRIRLGQDMPLELTFRIGPAGEGKLTFYLAPRVEE
With B2 the “effect on polymerase activity of PolB” value [5] was “increase”, the “initial rate of the primer extension” value [6] was 1.75 fold and the “effect on hydrolysis of the primer annealed to the duplex” value [7] was “suppression of hydrolysis of the primer”.
